Experimental data: PMC2289477

Target: profilin from bovine brain (profilin of the high-affinity profilactin complex) (bovine (endogenous in bovine brain)) (UniProt P02584)
Sequence of UniProt P02584 (P02584 whole entry, one chain of several): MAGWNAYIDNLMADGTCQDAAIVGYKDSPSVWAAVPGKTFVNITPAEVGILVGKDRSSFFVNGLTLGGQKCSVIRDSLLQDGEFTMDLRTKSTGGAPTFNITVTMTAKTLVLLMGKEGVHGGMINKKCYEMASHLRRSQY

stoichiometry N (actin/profilin molar ratio): 1
Substance: actin from bovine brain (actin of the high-affinity profilactin complex) (from UniProt P60712 1-375) (natural protein)
